Measurements from the supplement of paper PMC10724198.
± gives the standard deviation of the averaged measurements.

System: Saccharomyces cerevisiae
Assay: protein stability index of tFT-peptide fusion (C-terminal peptide) (PSI (0-1 scale)); higher = more stable (slower turnover)
Settings: temperature: 30 C
Protocol: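 MPS profiling in S. cerevisiae of the yeast C-terminome library: the last 12 aa of each annotated ORF are fused to the C-terminus of a sfGFP-mCherry timer, after a GGGS linker. Cells are FACS-sorted into 8 mCherry/sfGFP bins and deep-sequenced. PSI runs from 0 (unstable) to 1 (stable); wild type and das1Δ backgrounds, two technical replicates each.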

[1] = genetic background: das1 deletion

Sequence | protein stability index [1] | protein stability index (genetic background: wild type)
YLPRSKWFGILV [ALG14 C-terminal 12 aa] | 0.359 ± 0.02 | 0.165 ± 0.0058
FKIFCNCIQSLA [YPL199C C-terminal 12 aa] | 0.341 ± 0.0075 | 0.323 ± 0.009
EPKYVDEDDWSD [CEG1 C-terminal 12 aa] | 0.69393 ± 0.00048 | 0.68 ± 0.02
DENDKVIAIKVV [VPS25 C-terminal 12 aa] | 0.5736 ± 0.00061 | 0.525 ± 0.011
IKELENSRHEQS [MNN1 C-terminal 12 aa] | 0.713 ± 0.049 | 0.6866 ± 7.9e-05
TNERQLNPWICN [YML090W C-terminal 12 aa] | 0.7061 ± 0.0031 | 0.688 ± 0.031
ALKHGEKAFNIN [NEM1 C-terminal 12 aa] | 0.678 ± 0.017 | 0.6766 ± 0.0023
KTFKLLTNKWIH [YAR009C C-terminal 12 aa] | 0.704 ± 0.018 | 0.587 ± 0.014
PILCTSEDFMGW [RGP1 C-terminal 12 aa] | 0.709 ± 0.0088 | 0.732 ± 0.049
PIIKEILQEYES [DNA2 C-terminal 12 aa] | 0.6914 ± 0.0039 | 0.729 ± 0.013
SETFATPTPNNR [SPC42 C-terminal 12 aa] | 0.718 ± 0.022 | 0.725 ± 0.01
KMDKRAKTSDSA [RPL8B C-terminal 12 aa] | 0.698 ± 0.0049 | 0.6802 ± 0.0027
VVGEDEKDDFFE [EFG1 C-terminal 12 aa] | 0.721 ± 0.024 | 0.691 ± 0.026
SFALVFKISAEV [YAR053W C-terminal 12 aa] | 0.448 ± 0.046 | 0.489 ± 0.022
TVIFSCVPGRRV [RAX1 C-terminal 12 aa] | 0.7205 ± 0.0062 | 0.709 ± 0.0011
EKKFKEILNIQW [PET112 C-terminal 12 aa] | 0.709 ± 0.025 | 0.722 ± 0.01
HFYDRTNDLTNL [YNL144C C-terminal 12 aa] | 0.736 ± 0.024 | 0.68 ± 0.039
ANKNDAISKKVE [ATG23 C-terminal 12 aa] | 0.69 ± 0.017 | 0.763 ± 0.077
TDLENETFIYPL [YCT1 C-terminal 12 aa] | 0.722 ± 0.022 | 0.793 ± 0.072
NFVMTVFWKIPV [PER33 C-terminal 12 aa] | 0.5008 ± 0.0016 | 0.558 ± 0.075
KQGKKKKDCVIM [SKT5 C-terminal 12 aa] | 0.7193 ± 0.0022 | 0.696 ± 0.047

Sequence | protein stability index [1] | protein stability index (genetic background: wild type)
VVCMVVLLAVLS [VAM3 C-terminal 12 aa] | 0.148 ± 0.018 | 0.171 ± 0.012
LREMMNKDFAGL [PSD2 C-terminal 12 aa] | 0.708 ± 0.02 | 0.698 ± 0.0081
EYTDFMSWMQDN [YER186C C-terminal 12 aa] | 0.74 ± 0.01 | 0.646 ± 0.15
SQSCPFFPLMDD [YDR246W-A C-terminal 12 aa] | 0.738 ± 0.012 | 0.7463 ± 0.0073
GAAVRLTGSDRV [RPN7 C-terminal 12 aa] | 0.685 ± 0.007 | 0.679 ± 0.035
GARPPKNEARII [YBL036C C-terminal 12 aa] | 0.694 ± 0.011 | 0.677 ± 0.038
FLEIVVPCHCTT [YJL077W-A C-terminal 12 aa] | 0.539 ± 0.0037 | 0.56 ± 0.021
TDEFDMLIGIDH [COG6 C-terminal 12 aa] | 0.697 ± 0.024 | 0.707 ± 0.025
IGDFFKNLNMAK [NUP159 C-terminal 12 aa] | 0.715 ± 0.026 | 0.743 ± 0.054
KQLGSSHNYTVN [SKG6 C-terminal 12 aa] | 0.695 ± 0.019 | 0.696 ± 0.0079
ILWLKLEKRIEN [YLR339C C-terminal 12 aa] | 0.711 ± 0.025 | 0.703 ± 0.01
LERILHEMHPPA [EOS1 C-terminal 12 aa] | 0.714 ± 0.012 | 0.726 ± 0.025
ERLRFYKDTFTL [RRI1 C-terminal 12 aa] | 0.726 ± 0.0089 | 0.653 ± 0.011
WFICRMLSKVTL [YNR003W-A C-terminal 12 aa] | 0.609 ± 0.012 | 0.595 ± 0.012
SGWSNFEDFFSR [YKL222C C-terminal 12 aa] | 0.744 ± 0.021 | 0.77 ± 0.019
KEASRRFDAGKI [SOD2 C-terminal 12 aa] | 0.6778 ± 0.0059 | 0.6795 ± 0.0053
NIGSPLGAPKKK [MBF1 C-terminal 12 aa] | 0.696 ± 0.031 | 0.7008 ± 0.0064
GYKDRFGNLNVM [ATP7 C-terminal 12 aa] | 0.7037 ± 0.0041 | 0.687 ± 0.02
MDDEFVSGRFEI [SCH9 C-terminal 12 aa] | 0.717 ± 0.025 | 0.7026 ± 0.0042
KHGVSAVKRYLR [CBP1 C-terminal 12 aa] | 0.6765 ± 0.0054 | 0.68 ± 0.0089
FSDFLDSNRITQ [LDB19 C-terminal 12 aa] | 0.72756 ± 0.00057 | 0.723 ± 0.017

Sequence | protein stability index [1] | protein stability index (genetic background: wild type)
GTMKVDSWEPVD [ACH1 C-terminal 12 aa] | 0.7 ± 0.013 | 0.6829 ± 0.0049
EKPEGKDTKTEE [CMK1 C-terminal 12 aa] | 0.685 ± 0.022 | 0.684 ± 0.051
EWFYEKFLGNIF [DIP5 C-terminal 12 aa] | 0.747 ± 0.013 | 0.702 ± 0.014
RREKRNKALKER [CGR1 C-terminal 12 aa] | 0.7064 ± 0.0034 | 0.6945 ± 0.0019
RHSCGRQMRVLA [AUA1 C-terminal 12 aa] | 0.6614 ± 0.0011 | 0.248 ± 0.0083
HNLESLVVAFNE [SPO16 C-terminal 12 aa] | 0.6872 ± 0.003 | 0.717 ± 0.064
EQLGHASKRHKP [RPP1 C-terminal 12 aa] | 0.694 ± 0.011 | 0.689 ± 0.0075
TISRLPPRSWTN [YCL042W C-terminal 12 aa] | 0.717 ± 0.037 | 0.739 ± 0.015
KVVTRSIVLWGV [YGL235W C-terminal 12 aa] | 0.632 ± 0.02 | 0.615 ± 0.016
RKSENYLNGRQT [YNL067W-B C-terminal 12 aa] | 0.681 ± 0.017 | 0.721 ± 0.0088
FASNKKVTASLR [AZR1 C-terminal 12 aa] | 0.696 ± 0.013 | 0.6868 ± 0.00086
HYPLNSIPFTVT [YMR326C C-terminal 12 aa] | 0.706 ± 0.019 | 0.775 ± 0.087
RNIDVSNLPSLA [STM1 C-terminal 12 aa] | 0.691 ± 0.011 | 0.6785 ± 0.0067
LDFAKRKLKKKQ [TFB2 C-terminal 12 aa] | 0.714 ± 0.015 | 0.622 ± 0.034
ITERLFNAALDD [YBR232C C-terminal 12 aa] | 0.7089 ± 0.0038 | 0.708 ± 0.018
LAYPACLACQAS [VPS69 C-terminal 12 aa] | 0.6 ± 0.02 | 0.59 ± 0.011
VVYRHLHTKVSK [HAL5 C-terminal 12 aa] | 0.682 ± 0.0075 | 0.658 ± 0.0043
CLSLDFVVPRPK [SHR5 C-terminal 12 aa] | 0.74 ± 0.016 | 0.697 ± 0.048
TSNGGVEETMKM [ARX1 C-terminal 12 aa] | 0.6815 ± 0.00071 | 0.676 ± 0.025
